From paper PMC2701924, “Molecular cloning and expression of a novel trehalose synthase gene from Enterobacter hormaechei” (Microbial Cell Factories, 2009)

Substrate: OC[C@H]1O[C@H](O[C@H]2O[C@H](CO)[C@@H](O)[C@H](O)[C@H]2O)[C@H](O)[C@@H](O)[C@@H]1O
Assay: initial rates, ion chromatography of products, Lineweaver-Burk
Format: biochemical, Enterobacter hormaechei
Details: substrate 1-200 mM, pH and temperature not stated for kinetics (standard assay 50 mM phosphate pH 6, 37°C), reverse reaction

B1: recombinant TreS (Enterobacter hormaechei trehalose synthase) (Enterobacter hormaechei) (protein)
chain: MAGWHTRAIIYQIDTALFYDLNGDGCGDIAGITAKLRYIRRMGATVIWITPFYLTPFLDEGYDVSDHLQVDPRFGKLNDIIAFIEQARELGMQVIIELLIQHTSDAHPWFQQARRNPQSPYRDYYLWSDTDDDDTPPMFPGVEKSIWTWDDEAGQYYRHMFYHHEPDLNLASPAVLKEVENIIIFWLKLGVSGFRLDAASHLTKQAGRGDEKRGLWILEHLRCLIGQRNPDAILLGEVDVEVEAYKDYFGQNDRLNLVLNFWLNKYFYVSLAEKSARPLRNAVKKMIVPPDSCCFANWLRNHDELDLEGIGKKAKQTVIDTFAPDEEMSVYQRGIRRRLAPMLNGDRKRLAFCHAVLFSLPGVPVMRYGDEIGMGDDLDLEERYAVRTPMQWAGSQGGGFSDADPETFVAPMIDHGPYRYQKINVADSLLHRNSLLHCIIDIANTRSEFPEIGVAPFRLINIDSDAVLGIYYETDTRSILTFVNFSDKPVNFTARGIRHATWTACLADKRYDDALVCGKTVALNLSGYGYRWFWTDRTALR
notes: pET30a(+) Nco I/Not I; 46 additional N-terminal residues incl; 6-His tag kept; about 65 kDa on SDS-PAGE; expressed in E. coli BL21(DE3) plysS, Ni-NTA
Km: 75 mM
